From patent publication US20050037477A1 (BOARD OF REGENTS OF THE UNIVERSITY OF OKLAHOMA, published 2005)

Target: T1, human C-terminal HPC-4 epitope-tagged C1β3Gal-T (core 1 β3-galactosyltransferase), full-length (human, UniProt Q9NS00 1-363)
T1 construct: mature; also called HPC4-tagged C1β3Gal-T; recombinant C1β3Gal-T
Experiment: Ni-NTA capture of His6-tagged wtCosmc-1 from Hi-5 and 293T cell extracts, C1β3Gal-T activity on the beads
Procedure: Capture of Human Cosmc-1 on Ni-NTA-Superflow-The Ni-NTA-Superflow beads (100 ml) (Qiagen, Inc.) equilibrated with the Ni-NTA washing buffer containing 50 mM NaH₂PO₄, 300 mM NaCl, 20 mM imidazole, 0.1% Triton X-100 (pH 7.8) were incubated with the cell extracts overnight at 4° C. on a rotator. The beads were washed 5 times with 1 ml of the washing buffer. One portion of the beads was removed for C1β3Gal-T enzyme assay. The bound material in the other portion was eluted with 100 ml of eluting solution (50 mM NaH₂PO₄, 300 mM NaCl, 250 mM imidazole, and 0.1% Triton X-100).
To confirm that Cosmc-1 and C1β3Gal-T can associate, we performed Western Blots on the HPC4-tagged C1β3Gal-T expressed in Hi5 cells and 293T cells with or without His₆-tagged wtCosmc-1 or mCosmc-1. When HPC4-tagged C1β3Gal-T was expressed in Hi5 cells in the absence or presence of wtCosmc-1 or mCosmc-1, a considerable amount protein was generated (FIG. 2G), but the enzyme lacked activity except when co-expressed with wtCosmc-1 (FIG. 2A-C). More importantly, HPC4-tagged C1β3Gal-T was present with His₆-tagged wtCosmc-1 when the latter was captured on Ni-NTA (FIGS. 2G,H). […] There was a slight amount of HPC4-tagged C1β3Gal-T detected in the Ni-NTA bound material in the absence of His₆-tagged wtCosmc-1 in 293T cells (FIG. 2H). […]

T1 sequence (Q9NS00 other isoform, or with tags, fused parts or gaps): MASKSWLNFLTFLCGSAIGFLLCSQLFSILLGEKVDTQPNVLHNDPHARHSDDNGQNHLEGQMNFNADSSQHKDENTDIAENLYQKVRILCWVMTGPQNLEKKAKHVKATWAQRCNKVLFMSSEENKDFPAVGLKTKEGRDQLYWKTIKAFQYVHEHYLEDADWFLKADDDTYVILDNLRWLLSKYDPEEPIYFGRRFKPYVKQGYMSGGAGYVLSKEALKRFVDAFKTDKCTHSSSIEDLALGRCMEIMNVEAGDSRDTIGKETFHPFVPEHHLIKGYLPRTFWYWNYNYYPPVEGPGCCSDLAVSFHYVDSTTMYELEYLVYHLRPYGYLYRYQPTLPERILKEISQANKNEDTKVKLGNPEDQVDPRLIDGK

B1: human C-terminal His6-tagged Cosmc-1 (wild-type; Core 1 β3-Gal-T Specific Molecular Chaperone-1) (other)
chain: MLSESSSFLKGVMLGSIFCALITMLGHIRIGHGNRMHHHEHHHLQAPNKEDILKISEDERMELSKSFRVYCIILVKPKDVSLWAAVKETWTKHCDKAEFFSSENVKVFESINMDTNDMWLMMRKAYKYAFDKYRDQYNWFFLARPTTFAIIENLKYFLLKKDPSQPFYLGHTIKSGDLEYVGMEGGIVLSVESMKRLNSLLNIPEKCPEQGGMIWKISEDKQLAVCLKYAGVFAENAEDADGKDVFNTKSVGLSIKEAMTYHPNQVVEGCCSDMAVTFNGLTPNQMHVMMYGVYRLRAFGHIFNDALVFLPPNGSDNDHHHHHH
notes: Co-expressed with C1β3Gal-T in Hi-5 insect cells or 293T cells and captured from Triton X-100 cell extracts on Ni-NTA; also called wtCosmc-1; wt-Cosmc-1
- binding result: binds
